Data from US20240199746A1 (published 2024).

Experiments:
[1] = molecular target: T1, Ax1 protein, extracellular domain (human, UniProt P30530 26-451); experiment: ELISA, mutant diluted 1:3
T1 construct: extracellular domain; also called Axl; Ark
T1 sequence (looked up): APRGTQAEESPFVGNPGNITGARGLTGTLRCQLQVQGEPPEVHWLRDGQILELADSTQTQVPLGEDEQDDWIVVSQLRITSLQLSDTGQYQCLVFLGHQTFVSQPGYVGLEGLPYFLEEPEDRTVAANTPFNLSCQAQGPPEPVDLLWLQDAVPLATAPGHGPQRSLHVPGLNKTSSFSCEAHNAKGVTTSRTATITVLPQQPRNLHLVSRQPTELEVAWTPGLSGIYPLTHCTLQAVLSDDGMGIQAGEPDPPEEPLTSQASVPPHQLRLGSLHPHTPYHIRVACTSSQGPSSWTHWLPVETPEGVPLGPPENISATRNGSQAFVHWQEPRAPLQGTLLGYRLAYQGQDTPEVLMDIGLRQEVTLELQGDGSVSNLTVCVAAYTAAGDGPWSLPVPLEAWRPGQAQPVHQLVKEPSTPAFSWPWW
Excerpt: (§1) The DNA encoding the wild-type antibody was evolved to generate a mutant antibody library using Comprehensive Positional Evolution (CPE), which each position in the template antibody is randomized one at a time. Each mutant antibody in the library has only one single point mutation. The mutant antibodies in the library were generated by simultaneously screening for selective binding affinity to Ax1 at pH 6.0 over pH 7.4 by ELISA. Two mutant antibody dilutions were used: 1:3 and 1:9 dilutions.

[2] = molecular target: T1, Ax1 protein, extracellular domain; experiment: ELISA, mutant diluted 1:9
Excerpt: as §1

B1: LC-F092G (antibody, V domains shown)
VH: EVQLVQSGAEVKKPGATVKISCKVSGYSFTGHTMNWIRQPPGKGLEWIGLIKPSNGGTSYNQKFKGRVTISADKSISTAYLQWSSLKASDTAMYYCAHGHYESYFAMDYWGQGTLVTVSS
VL: DIQMTQSPSSLSASVGDRVTITCKASQDVSSAVAWYQQKPGQAPRLLIYWASTRHTGVPSRFSGSGSGTEFTLTISSLQPDDFATYYCQEHGSTPLTFGQGTKVEIK
notes: CPE single point mutant
Affinity ELISA CPE mutant ratio (1:3, pH 6.0/7.4) [1]: 3.69 | Affinity ELISA CPE mutant ratio (1:9, pH 6.0/7.4) [2]: 4.76

B2: LC-P095A (antibody, V domains shown)
VH: EVQLVQSGAEVKKPGATVKISCKVSGYSFTGHTMNWIRQPPGKGLEWIGLIKPSNGGTSYNQKFKGRVTISADKSISTAYLQWSSLKASDTAMYYCAHGHYESYFAMDYWGQGTLVTVSS
VL: DIQMTQSPSSLSASVGDRVTITCKASQDVSSAVAWYQQKPGQAPRLLIYWASTRHTGVPSRFSGSGSGTEFTLTISSLQPDDFATYYCQEHFSTALTFGQGTKVEIK
notes: CPE single point mutant
Affinity ELISA CPE mutant ratio (1:3, pH 6.0/7.4) [1]: 2.52 | Affinity ELISA CPE mutant ratio (1:9, pH 6.0/7.4) [2]: 2.99

B3: LC-P095S (antibody, V domains shown)
VH: EVQLVQSGAEVKKPGATVKISCKVSGYSFTGHTMNWIRQPPGKGLEWIGLIKPSNGGTSYNQKFKGRVTISADKSISTAYLQWSSLKASDTAMYYCAHGHYESYFAMDYWGQGTLVTVSS
VL: DIQMTQSPSSLSASVGDRVTITCKASQDVSSAVAWYQQKPGQAPRLLIYWASTRHTGVPSRFSGSGSGTEFTLTISSLQPDDFATYYCQEHFSTSLTFGQGTKVEIK
notes: CPE single point mutant
Affinity ELISA CPE mutant ratio (1:3, pH 6.0/7.4) [1]: 2.84 | Affinity ELISA CPE mutant ratio (1:9, pH 6.0/7.4) [2]: 3.51

B4: LC-P095D (antibody, V domains shown)
VH: EVQLVQSGAEVKKPGATVKISCKVSGYSFTGHTMNWIRQPPGKGLEWIGLIKPSNGGTSYNQKFKGRVTISADKSISTAYLQWSSLKASDTAMYYCAHGHYESYFAMDYWGQGTLVTVSS
VL: DIQMTQSPSSLSASVGDRVTITCKASQDVSSAVAWYQQKPGQAPRLLIYWASTRHTGVPSRFSGSGSGTEFTLTISSLQPDDFATYYCQEHFSTDLTFGQGTKVEIK
notes: CPE single point mutant
Affinity ELISA CPE mutant ratio (1:3, pH 6.0/7.4) [1]: 3.95 | Affinity ELISA CPE mutant ratio (1:9, pH 6.0/7.4) [2]: 2.89

B5: LC-H091Y (antibody, V domains shown)
VH: EVQLVQSGAEVKKPGATVKISCKVSGYSFTGHTMNWIRQPPGKGLEWIGLIKPSNGGTSYNQKFKGRVTISADKSISTAYLQWSSLKASDTAMYYCAHGHYESYFAMDYWGQGTLVTVSS
VL: DIQMTQSPSSLSASVGDRVTITCKASQDVSSAVAWYQQKPGQAPRLLIYWASTRHTGVPSRFSGSGSGTEFTLTISSLQPDDFATYYCQEYFSTPLTFGQGTKVEIK
notes: CPE single point mutant
Affinity ELISA CPE mutant ratio (1:3, pH 6.0/7.4) [1]: 3.93 | Affinity ELISA CPE mutant ratio (1:9, pH 6.0/7.4) [2]: 5.13

B6: LC-H091T (antibody, V domains shown)
VH: EVQLVQSGAEVKKPGATVKISCKVSGYSFTGHTMNWIRQPPGKGLEWIGLIKPSNGGTSYNQKFKGRVTISADKSISTAYLQWSSLKASDTAMYYCAHGHYESYFAMDYWGQGTLVTVSS
VL: DIQMTQSPSSLSASVGDRVTITCKASQDVSSAVAWYQQKPGQAPRLLIYWASTRHTGVPSRFSGSGSGTEFTLTISSLQPDDFATYYCQETFSTPLTFGQGTKVEIK
notes: CPE single point mutant
Affinity ELISA CPE mutant ratio (1:3, pH 6.0/7.4) [1]: 3.78 | Affinity ELISA CPE mutant ratio (1:9, pH 6.0/7.4) [2]: 3.7

B7: LC-H091S (antibody, V domains shown)
VH: EVQLVQSGAEVKKPGATVKISCKVSGYSFTGHTMNWIRQPPGKGLEWIGLIKPSNGGTSYNQKFKGRVTISADKSISTAYLQWSSLKASDTAMYYCAHGHYESYFAMDYWGQGTLVTVSS
VL: DIQMTQSPSSLSASVGDRVTITCKASQDVSSAVAWYQQKPGQAPRLLIYWASTRHTGVPSRFSGSGSGTEFTLTISSLQPDDFATYYCQESFSTPLTFGQGTKVEIK
notes: CPE single point mutant
Affinity ELISA CPE mutant ratio (1:3, pH 6.0/7.4) [1]: 1.76 | Affinity ELISA CPE mutant ratio (1:9, pH 6.0/7.4) [2]: 1.34

B8: LC-P095K (antibody, V domains shown)
VH: EVQLVQSGAEVKKPGATVKISCKVSGYSFTGHTMNWIRQPPGKGLEWIGLIKPSNGGTSYNQKFKGRVTISADKSISTAYLQWSSLKASDTAMYYCAHGHYESYFAMDYWGQGTLVTVSS
VL: DIQMTQSPSSLSASVGDRVTITCKASQDVSSAVAWYQQKPGQAPRLLIYWASTRHTGVPSRFSGSGSGTEFTLTISSLQPDDFATYYCQEHFSTKLTFGQGTKVEIK
notes: CPE single point mutant
Affinity ELISA CPE mutant ratio (1:3, pH 6.0/7.4) [1]: 3.84 | Affinity ELISA CPE mutant ratio (1:9, pH 6.0/7.4) [2]: 3.47

B9: LC-P095T (antibody, V domains shown)
VH: EVQLVQSGAEVKKPGATVKISCKVSGYSFTGHTMNWIRQPPGKGLEWIGLIKPSNGGTSYNQKFKGRVTISADKSISTAYLQWSSLKASDTAMYYCAHGHYESYFAMDYWGQGTLVTVSS
VL: DIQMTQSPSSLSASVGDRVTITCKASQDVSSAVAWYQQKPGQAPRLLIYWASTRHTGVPSRFSGSGSGTEFTLTISSLQPDDFATYYCQEHFSTTLTFGQGTKVEIK
notes: CPE single point mutant
Affinity ELISA CPE mutant ratio (1:3, pH 6.0/7.4) [1]: 2.5 | Affinity ELISA CPE mutant ratio (1:9, pH 6.0/7.4) [2]: 2.09

B10: LC-P095E (antibody, V domains shown)
VH: EVQLVQSGAEVKKPGATVKISCKVSGYSFTGHTMNWIRQPPGKGLEWIGLIKPSNGGTSYNQKFKGRVTISADKSISTAYLQWSSLKASDTAMYYCAHGHYESYFAMDYWGQGTLVTVSS
VL: DIQMTQSPSSLSASVGDRVTITCKASQDVSSAVAWYQQKPGQAPRLLIYWASTRHTGVPSRFSGSGSGTEFTLTISSLQPDDFATYYCQEHFSTELTFGQGTKVEIK
notes: CPE single point mutant
Affinity ELISA CPE mutant ratio (1:3, pH 6.0/7.4) [1]: 7.12 | Affinity ELISA CPE mutant ratio (1:9, pH 6.0/7.4) [2]: 7.51

B11: LC-P095C (antibody, V domains shown)
VH: EVQLVQSGAEVKKPGATVKISCKVSGYSFTGHTMNWIRQPPGKGLEWIGLIKPSNGGTSYNQKFKGRVTISADKSISTAYLQWSSLKASDTAMYYCAHGHYESYFAMDYWGQGTLVTVSS
VL: DIQMTQSPSSLSASVGDRVTITCKASQDVSSAVAWYQQKPGQAPRLLIYWASTRHTGVPSRFSGSGSGTEFTLTISSLQPDDFATYYCQEHFSTCLTFGQGTKVEIK
notes: CPE single point mutant
Affinity ELISA CPE mutant ratio (1:3, pH 6.0/7.4) [1]: 2.35 | Affinity ELISA CPE mutant ratio (1:9, pH 6.0/7.4) [2]: 2.63

B12: LC-F092N (antibody, V domains shown)
VH: EVQLVQSGAEVKKPGATVKISCKVSGYSFTGHTMNWIRQPPGKGLEWIGLIKPSNGGTSYNQKFKGRVTISADKSISTAYLQWSSLKASDTAMYYCAHGHYESYFAMDYWGQGTLVTVSS
VL: DIQMTQSPSSLSASVGDRVTITCKASQDVSSAVAWYQQKPGQAPRLLIYWASTRHTGVPSRFSGSGSGTEFTLTISSLQPDDFATYYCQEHNSTPLTFGQGTKVEIK
notes: CPE single point mutant
Affinity ELISA CPE mutant ratio (1:3, pH 6.0/7.4) [1]: 1.93 | Affinity ELISA CPE mutant ratio (1:9, pH 6.0/7.4) [2]: 2

B13: LC-H091L (antibody, V domains shown)
VH: EVQLVQSGAEVKKPGATVKISCKVSGYSFTGHTMNWIRQPPGKGLEWIGLIKPSNGGTSYNQKFKGRVTISADKSISTAYLQWSSLKASDTAMYYCAHGHYESYFAMDYWGQGTLVTVSS
VL: DIQMTQSPSSLSASVGDRVTITCKASQDVSSAVAWYQQKPGQAPRLLIYWASTRHTGVPSRFSGSGSGTEFTLTISSLQPDDFATYYCQELFSTPLTFGQGTKVEIK
notes: CPE single point mutant
Affinity ELISA CPE mutant ratio (1:3, pH 6.0/7.4) [1]: 2.17 | Affinity ELISA CPE mutant ratio (1:9, pH 6.0/7.4) [2]: 2.44

B14: LC-H091C (antibody, V domains shown)
VH: EVQLVQSGAEVKKPGATVKISCKVSGYSFTGHTMNWIRQPPGKGLEWIGLIKPSNGGTSYNQKFKGRVTISADKSISTAYLQWSSLKASDTAMYYCAHGHYESYFAMDYWGQGTLVTVSS
VL: DIQMTQSPSSLSASVGDRVTITCKASQDVSSAVAWYQQKPGQAPRLLIYWASTRHTGVPSRFSGSGSGTEFTLTISSLQPDDFATYYCQECFSTPLTFGQGTKVEIK
notes: CPE single point mutant
Affinity ELISA CPE mutant ratio (1:3, pH 6.0/7.4) [1]: 4 | Affinity ELISA CPE mutant ratio (1:9, pH 6.0/7.4) [2]: 3.02

B15: LC-H091V (antibody, V domains shown)
VH: EVQLVQSGAEVKKPGATVKISCKVSGYSFTGHTMNWIRQPPGKGLEWIGLIKPSNGGTSYNQKFKGRVTISADKSISTAYLQWSSLKASDTAMYYCAHGHYESYFAMDYWGQGTLVTVSS
VL: DIQMTQSPSSLSASVGDRVTITCKASQDVSSAVAWYQQKPGQAPRLLIYWASTRHTGVPSRFSGSGSGTEFTLTISSLQPDDFATYYCQEVFSTPLTFGQGTKVEIK
notes: CPE single point mutant
Affinity ELISA CPE mutant ratio (1:3, pH 6.0/7.4) [1]: 4.13 | Affinity ELISA CPE mutant ratio (1:9, pH 6.0/7.4) [2]: 1.17

B16: LC-P095H (antibody, V domains shown)
VH: EVQLVQSGAEVKKPGATVKISCKVSGYSFTGHTMNWIRQPPGKGLEWIGLIKPSNGGTSYNQKFKGRVTISADKSISTAYLQWSSLKASDTAMYYCAHGHYESYFAMDYWGQGTLVTVSS
VL: DIQMTQSPSSLSASVGDRVTITCKASQDVSSAVAWYQQKPGQAPRLLIYWASTRHTGVPSRFSGSGSGTEFTLTISSLQPDDFATYYCQEHFSTHLTFGQGTKVEIK
notes: CPE single point mutant
Affinity ELISA CPE mutant ratio (1:3, pH 6.0/7.4) [1]: 2.5 | Affinity ELISA CPE mutant ratio (1:9, pH 6.0/7.4) [2]: 2.75

B17: LC-F092S (antibody, V domains shown)
VH: EVQLVQSGAEVKKPGATVKISCKVSGYSFTGHTMNWIRQPPGKGLEWIGLIKPSNGGTSYNQKFKGRVTISADKSISTAYLQWSSLKASDTAMYYCAHGHYESYFAMDYWGQGTLVTVSS
VL: DIQMTQSPSSLSASVGDRVTITCKASQDVSSAVAWYQQKPGQAPRLLIYWASTRHTGVPSRFSGSGSGTEFTLTISSLQPDDFATYYCQEHSSTPLTFGQGTKVEIK
notes: CPE single point mutant
Affinity ELISA CPE mutant ratio (1:3, pH 6.0/7.4) [1]: 3.18 | Affinity ELISA CPE mutant ratio (1:9, pH 6.0/7.4) [2]: 2.94
